Assay results reported in patent publication US20210139548A1 (published 2021).
*1 amine or outer side, *2 acyl side, *3 side chain or, on linkers, in order; H or OH if unused. Side-chain parts run from the residue outwards. The star is where a group is joined. C18 diacid = O=C(O)CCCCCCCCCCCCCCCCC(=O)*; γGlu = O=C(O)[C@H](CCC(=O)[*:2])N[*:1]; Isovaleryl = CC(C)CC(=O)*; AEEA = NCCOCCOCC(=O)O

T1: human neuropeptide Y2 receptor (human, UniProt P49146 1-381)
T1 construct: whole, on cells; also called hNPY2 receptor; hNPY2-R
T1 sequence (looked up): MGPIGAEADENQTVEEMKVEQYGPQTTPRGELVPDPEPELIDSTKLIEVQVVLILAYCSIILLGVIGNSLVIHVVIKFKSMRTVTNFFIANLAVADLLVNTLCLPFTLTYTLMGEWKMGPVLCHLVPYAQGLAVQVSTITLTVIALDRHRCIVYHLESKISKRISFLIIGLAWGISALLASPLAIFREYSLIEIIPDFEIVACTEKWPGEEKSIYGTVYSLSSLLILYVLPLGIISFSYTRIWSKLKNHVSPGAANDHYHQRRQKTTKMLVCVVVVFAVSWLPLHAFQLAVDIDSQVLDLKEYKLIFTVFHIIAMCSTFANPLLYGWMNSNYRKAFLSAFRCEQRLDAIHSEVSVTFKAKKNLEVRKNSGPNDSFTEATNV

B1: Compound 150 (peptide)
peptide: Isovaleryl-APEK([AEEA-AEEA-γGlu-C18 diacid])PEEDAEPEELQKYYVSLRHYYNWLTRQRY-NH2
SMILES: CC(C)CC(=O)N[C@@H](C)C(=O)N1CCC[C@H]1C(=O)N[C@@H](CCC(=O)O)C(=O)N[C@@H](CCCCNC(=O)COCCOCCNC(=O)COCCOCCNC(=O)CC[C@H](NC(=O)CCCCCCCCCCCCCCCCC(=O)O)C(=O)O)C(=O)N1CCC[C@H]1C(=O)N[C@@H](CCC(=O)O)C(=O)N[C@@H](CCC(=O)O)C(=O)N[C@@H](CC(=O)O)C(=O)N[C@@H](C)C(=O)N[C@@H](CCC(=O)O)C(=O)N1CCC[C@H]1C(=O)N[C@@H](CCC(=O)O)C(=O)N[C@@H](CCC(=O)O)C(=O)N[C@@H](CC(C)C)C(=O)N[C@@H](CCC(N)=O)C(=O)N[C@@H](CCCCN)C(=O)N[C@@H](Cc1ccc(O)cc1)C(=O)N[C@@H](Cc1ccc(O)cc1)C(=O)N[C@H](C(=O)N[C@@H](CO)C(=O)N[C@@H](CC(C)C)C(=O)N[C@@H](CCCNC(=N)N)C(=O)N[C@@H](Cc1c[nH]cn1)C(=O)N[C@@H](Cc1ccc(O)cc1)C(=O)N[C@@H](Cc1ccc(O)cc1)C(=O)N[C@@H](CC(N)=O)C(=O)N[C@@H](Cc1c[nH]c2ccccc12)C(=O)N[C@@H](CC(C)C)C(=O)N[C@H](C(=O)N[C@@H](CCCNC(=N)N)C(=O)N[C@@H](CCC(N)=O)C(=O)N[C@@H](CCCNC(=N)N)C(=O)N[C@@H](Cc1ccc(O)cc1)C(N)=O)[C@@H](C)O)C(C)C
B2: Compound 153 (peptide)
peptide: Isovaleryl-APEK([AEEA-AEEA-γGlu-C18 diacid])VEEEASPEELQRYYVSLRHYYNWLTRQRY-NH2
SMILES: CC(C)CC(=O)N[C@@H](C)C(=O)N1CCC[C@H]1C(=O)N[C@@H](CCC(=O)O)C(=O)N[C@@H](CCCCNC(=O)COCCOCCNC(=O)COCCOCCNC(=O)CC[C@H](NC(=O)CCCCCCCCCCCCCCCCC(=O)O)C(=O)O)C(=O)N[C@H](C(=O)N[C@@H](CCC(=O)O)C(=O)N[C@@H](CCC(=O)O)C(=O)N[C@@H](CCC(=O)O)C(=O)N[C@@H](C)C(=O)N[C@@H](CO)C(=O)N1CCC[C@H]1C(=O)N[C@@H](CCC(=O)O)C(=O)N[C@@H](CCC(=O)O)C(=O)N[C@@H](CC(C)C)C(=O)N[C@@H](CCC(N)=O)C(=O)N[C@@H](CCCNC(=N)N)C(=O)N[C@@H](Cc1ccc(O)cc1)C(=O)N[C@@H](Cc1ccc(O)cc1)C(=O)N[C@H](C(=O)N[C@@H](CO)C(=O)N[C@@H](CC(C)C)C(=O)N[C@@H](CCCNC(=N)N)C(=O)N[C@@H](Cc1c[nH]cn1)C(=O)N[C@@H](Cc1ccc(O)cc1)C(=O)N[C@@H](Cc1ccc(O)cc1)C(=O)N[C@@H](CC(N)=O)C(=O)N[C@@H](Cc1c[nH]c2ccccc12)C(=O)N[C@@H](CC(C)C)C(=O)N[C@H](C(=O)N[C@@H](CCCNC(=N)N)C(=O)N[C@@H](CCC(N)=O)C(=O)N[C@@H](CCCNC(=N)N)C(=O)N[C@@H](Cc1ccc(O)cc1)C(N)=O)[C@@H](C)O)C(C)C)C(C)C
B3: Compound 158 (peptide)
peptide: Isovaleryl-APEK([AEEA-AEEA-γGlu-C18 diacid])PEEDASPEELQRYYVSLRHYWNYLTRQRY-NH2
SMILES: CC(C)CC(=O)N[C@@H](C)C(=O)N1CCC[C@H]1C(=O)N[C@@H](CCC(=O)O)C(=O)N[C@@H](CCCCNC(=O)COCCOCCNC(=O)COCCOCCNC(=O)CC[C@H](NC(=O)CCCCCCCCCCCCCCCCC(=O)O)C(=O)O)C(=O)N1CCC[C@H]1C(=O)N[C@@H](CCC(=O)O)C(=O)N[C@@H](CCC(=O)O)C(=O)N[C@@H](CC(=O)O)C(=O)N[C@@H](C)C(=O)N[C@@H](CO)C(=O)N1CCC[C@H]1C(=O)N[C@@H](CCC(=O)O)C(=O)N[C@@H](CCC(=O)O)C(=O)N[C@@H](CC(C)C)C(=O)N[C@@H](CCC(N)=O)C(=O)N[C@@H](CCCNC(=N)N)C(=O)N[C@@H](Cc1ccc(O)cc1)C(=O)N[C@@H](Cc1ccc(O)cc1)C(=O)N[C@H](C(=O)N[C@@H](CO)C(=O)N[C@@H](CC(C)C)C(=O)N[C@@H](CCCNC(=N)N)C(=O)N[C@@H](Cc1c[nH]cn1)C(=O)N[C@@H](Cc1ccc(O)cc1)C(=O)N[C@@H](Cc1c[nH]c2ccccc12)C(=O)N[C@@H](CC(N)=O)C(=O)N[C@@H](Cc1ccc(O)cc1)C(=O)N[C@@H](CC(C)C)C(=O)N[C@H](C(=O)N[C@@H](CCCNC(=N)N)C(=O)N[C@@H](CCC(N)=O)C(=O)N[C@@H](CCCNC(=N)N)C(=O)N[C@@H](Cc1ccc(O)cc1)C(N)=O)[C@@H](C)O)C(C)C
B4: Compound 155 (peptide)
peptide: Isovaleryl-APEK([AEEA-AEEA-γGlu-C18 diacid])PEEDASPEETQRYYVSLRHYYNWLTRQRY-NH2
SMILES: CC(C)CC(=O)N[C@@H](C)C(=O)N1CCC[C@H]1C(=O)N[C@@H](CCC(=O)O)C(=O)N[C@@H](CCCCNC(=O)COCCOCCNC(=O)COCCOCCNC(=O)CC[C@H](NC(=O)CCCCCCCCCCCCCCCCC(=O)O)C(=O)O)C(=O)N1CCC[C@H]1C(=O)N[C@@H](CCC(=O)O)C(=O)N[C@@H](CCC(=O)O)C(=O)N[C@@H](CC(=O)O)C(=O)N[C@@H](C)C(=O)N[C@@H](CO)C(=O)N1CCC[C@H]1C(=O)N[C@@H](CCC(=O)O)C(=O)N[C@@H](CCC(=O)O)C(=O)N[C@H](C(=O)N[C@@H](CCC(N)=O)C(=O)N[C@@H](CCCNC(=N)N)C(=O)N[C@@H](Cc1ccc(O)cc1)C(=O)N[C@@H](Cc1ccc(O)cc1)C(=O)N[C@H](C(=O)N[C@@H](CO)C(=O)N[C@@H](CC(C)C)C(=O)N[C@@H](CCCNC(=N)N)C(=O)N[C@@H](Cc1c[nH]cn1)C(=O)N[C@@H](Cc1ccc(O)cc1)C(=O)N[C@@H](Cc1ccc(O)cc1)C(=O)N[C@@H](CC(N)=O)C(=O)N[C@@H](Cc1c[nH]c2ccccc12)C(=O)N[C@@H](CC(C)C)C(=O)N[C@H](C(=O)N[C@@H](CCCNC(=N)N)C(=O)N[C@@H](CCC(N)=O)C(=O)N[C@@H](CCCNC(=N)N)C(=O)N[C@@H](Cc1ccc(O)cc1)C(N)=O)[C@@H](C)O)C(C)C)[C@@H](C)O
B5: Compound 151 (peptide)
peptide: Isovaleryl-APEK([AEEA-AEEA-γGlu-C18 diacid])PEAEASPEELQRYYVSLRHYYNWLTRQRY-NH2
SMILES: CC(C)CC(=O)N[C@@H](C)C(=O)N1CCC[C@H]1C(=O)N[C@@H](CCC(=O)O)C(=O)N[C@@H](CCCCNC(=O)COCCOCCNC(=O)COCCOCCNC(=O)CC[C@H](NC(=O)CCCCCCCCCCCCCCCCC(=O)O)C(=O)O)C(=O)N1CCC[C@H]1C(=O)N[C@@H](CCC(=O)O)C(=O)N[C@@H](C)C(=O)N[C@@H](CCC(=O)O)C(=O)N[C@@H](C)C(=O)N[C@@H](CO)C(=O)N1CCC[C@H]1C(=O)N[C@@H](CCC(=O)O)C(=O)N[C@@H](CCC(=O)O)C(=O)N[C@@H](CC(C)C)C(=O)N[C@@H](CCC(N)=O)C(=O)N[C@@H](CCCNC(=N)N)C(=O)N[C@@H](Cc1ccc(O)cc1)C(=O)N[C@@H](Cc1ccc(O)cc1)C(=O)N[C@H](C(=O)N[C@@H](CO)C(=O)N[C@@H](CC(C)C)C(=O)N[C@@H](CCCNC(=N)N)C(=O)N[C@@H](Cc1c[nH]cn1)C(=O)N[C@@H](Cc1ccc(O)cc1)C(=O)N[C@@H](Cc1ccc(O)cc1)C(=O)N[C@@H](CC(N)=O)C(=O)N[C@@H](Cc1c[nH]c2ccccc12)C(=O)N[C@@H](CC(C)C)C(=O)N[C@H](C(=O)N[C@@H](CCCNC(=N)N)C(=O)N[C@@H](CCC(N)=O)C(=O)N[C@@H](CCCNC(=N)N)C(=O)N[C@@H](Cc1ccc(O)cc1)C(N)=O)[C@@H](C)O)C(C)C
B6: Compound 152 (peptide)
peptide: Isovaleryl-APEK([AEEA-AEEA-γGlu-C18 diacid])AEEDASPEEIQRYYVSLRHYYNWLTRQRY-NH2
SMILES: CC[C@H](C)[C@H](NC(=O)[C@H](CCC(=O)O)NC(=O)[C@H](CCC(=O)O)NC(=O)[C@@H]1CCCN1C(=O)[C@H](CO)NC(=O)[C@H](C)NC(=O)[C@H](CC(=O)O)NC(=O)[C@H](CCC(=O)O)NC(=O)[C@H](CCC(=O)O)NC(=O)[C@H](C)NC(=O)[C@H](CCCCNC(=O)COCCOCCNC(=O)COCCOCCNC(=O)CC[C@H](NC(=O)CCCCCCCCCCCCCCCCC(=O)O)C(=O)O)NC(=O)[C@H](CCC(=O)O)NC(=O)[C@@H]1CCCN1C(=O)[C@H](C)NC(=O)CC(C)C)C(=O)N[C@@H](CCC(N)=O)C(=O)N[C@@H](CCCNC(=N)N)C(=O)N[C@@H](Cc1ccc(O)cc1)C(=O)N[C@@H](Cc1ccc(O)cc1)C(=O)N[C@H](C(=O)N[C@@H](CO)C(=O)N[C@@H](CC(C)C)C(=O)N[C@@H](CCCNC(=N)N)C(=O)N[C@@H](Cc1c[nH]cn1)C(=O)N[C@@H](Cc1ccc(O)cc1)C(=O)N[C@@H](Cc1ccc(O)cc1)C(=O)N[C@@H](CC(N)=O)C(=O)N[C@@H](Cc1c[nH]c2ccccc12)C(=O)N[C@@H](CC(C)C)C(=O)N[C@H](C(=O)N[C@@H](CCCNC(=N)N)C(=O)N[C@@H](CCC(N)=O)C(=O)N[C@@H](CCCNC(=N)N)C(=O)N[C@@H](Cc1ccc(O)cc1)C(N)=O)[C@@H](C)O)C(C)C

Biological target: T1, human neuropeptide Y2 receptor
Test: radioligand competition (125I-PYY(1-36)), hNPY2R membranes
Summary of the method: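 Commercial human Y2 receptor membranes (0.5 μg protein/well) were incubated with peptide for 2 h at room temperature in 50 mM HEPES, 5 mM MgCl₂, 1 mM CaCl₂, pH 7.4, with 0.2% ovalbumin. Bound radioligand was separated on PEI-soaked GF/C filters and counted by scintillation, and IC₅₀ came from nonlinear sigmoidal regression.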

Row | Binder | Ki [nM]
1 | B1 | 2.02
2 | B2 | 14.4
3 | B3 | 4.43
4 | B4 | 2.05
5 | B5 | 1.43
6 | B6 | 5.18
